In paper PMC3360035:

Biological target: Wild-type human γD-crystallin (human) (UniProt P07320)
Sequence (P07320 whole entry): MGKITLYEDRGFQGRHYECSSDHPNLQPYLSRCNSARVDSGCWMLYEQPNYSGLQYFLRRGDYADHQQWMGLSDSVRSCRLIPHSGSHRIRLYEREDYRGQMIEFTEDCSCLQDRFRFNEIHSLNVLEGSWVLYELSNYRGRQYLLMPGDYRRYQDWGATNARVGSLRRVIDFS

suppression of aggregation on dilution out of 5 M GdnHCl (from maximum A350), αB in 5-fold molar excess: 72%
Substance: αB-crystallin, wild type (from UniProt P02511 1-175) (natural protein)
